The values below come from article PMC12354883.

The target in this test is 5c.c7 TCR on 5c.c7 αβ TCR-transgenic CD4+ T-cells (mouse). The experiment in a line: flow cytometry on cells; time curve: T-cells labeled with AF555-H57-scFV (1800 ng per 1 Mio T-cells), washed, kept on ice, at room temperature or at 37 °C; samples taken after 0, 5, 10, 30, 60 and 120 min.

The substance “fluorescently labeled H57 scFV (J1), TCR β-reactive H57 single-chain fragment” had a time after which 50% of receptor:ligand bonds are still intact, room temperature of more than 3 h.
